In patent CN112500487A (HUADAO SHANGHAI BIOMEDICAL CO LTD, dated 2021) one finds Kd, koff and kon data, which are given here for one molecule.

The assay addresses T1, Human IL-3Rα/CD123蛋白 (human, UniProt P26951 19-305, limits assumed).
T1 construct: Soluble antigen in the mobile phase of the SPR run
T1 sequence (looked up): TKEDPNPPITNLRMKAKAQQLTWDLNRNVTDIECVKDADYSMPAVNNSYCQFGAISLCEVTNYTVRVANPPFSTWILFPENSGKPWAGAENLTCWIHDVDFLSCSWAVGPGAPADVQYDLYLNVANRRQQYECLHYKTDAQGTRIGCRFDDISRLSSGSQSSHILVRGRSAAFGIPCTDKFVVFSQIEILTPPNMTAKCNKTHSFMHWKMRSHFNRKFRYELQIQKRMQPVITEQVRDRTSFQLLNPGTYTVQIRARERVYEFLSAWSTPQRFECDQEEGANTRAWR
As to the kind of experiment: SPR (Biacore), antibody immobilised on chip, antigen in mobile phase. On the technique in general: SPR reads the build-up and loss of mass on a sensor chip optically.

B1: CD123-89 VHH-mIgG2a Fc抗体 (anti-CD123 VHH CD123-89 with mouse Fc tag) (Fc fusion)
chain: EVQLVESGGDSVQTGGSLRLSCLASGYIGSGYCLAWFRQAPGKERKKVANIVIGVGRPYYADSVKGRFTISQDNAKNTLYLQMNSLKPEDTAMYYCAASKFGSWSCGDYNYWGQGTQVTVSS
notes: Expressed in 293E cells from C-4pCP.Stuffer VHH-mCg2a-FC and purified on MabSelect SuRe; also called 抗CD123 VHH抗体CD123-89; 重组CD123-89抗体; not shown: mouse IgG2a Fc tag from vector C-4pCP.Stuffer VHH-mCg2a-FC
B1: the Kd turned out to be 0.48 nM, the dissociation rate constant (koff) stood at 0.000174 s⁻¹ and the association rate constant (kon) is 362000 M⁻¹ s⁻¹.

Broadly, the Kd is the concentration at which binding is half-saturated. Read a low Kd as tighter binding. The term koff denotes the first-order rate constant of dissociation. Low readings indicate slow dissociation, high ones fast dissociation. The term kon denotes the second-order rate constant of association.
